Measurements reported in the supplement of paper PMC9170038.

These sequences were tested on MS2 coat protein (assay: apparent KD of MS2 coat protein; higher = weaker reporter binding). Conditions: Eterna round: R107; input ligand: none.
In short: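 Designed RNA switches were made by on-chip transcription from Illumina sequencing clusters and then titrated with SNAP-549-labelled MS2 coat protein. Twofold steps ran from 0.7 or 1.5 nM to 3 µM, each lasting 0.8–1.5 h early and 10–20 min late, in 100 mM Tris-HCl pH 7.5, 80 mM KCl, 4 mM MgCl2, without or with constant ligand. Apparent KD is the per-design median of normalised cluster binding-curve fits.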

Sequence	apparent KD of MS2 coat protein
AACAUGAGGAUCACCCAUGUCUGAACUGAAGGAGCGCUAAAUAAGGCAGGUAGGUCGCGGAAUUUUGUGUGCAUAUGCAUAUGGG [9.I]	30.3 nM
CUCUGAGUGAGGAAUCACUCAGAGGCGGAUACCAGCGAGGUCCAUCGCCCUUGGCAGCCGAACAUGAGGAUCACCCAUGUCGGUA [#1 Same State - Theophylline A Attempt #23 (HarryS)]	9.45 nM
AGUCUUAGUGGAAGGAGCGCAGUCAUAACAUGAGGAUCACCCAUGUCGAGGUGAGGGUCAUUGCAGGUAGGUCGCCAUAAUAGGA [#16 Same State - Arginine B]	156 nM
GCGUACGAUCGGGAUACCAGACAUUGCCGUUAGGGUGAACUUGAGGAUCACCCAAGUUUUGUCCCUUGGCAGCCCGAUCGUACGC [ETB NP+V+V2 #9 Diff Apt, Same Structure]	10 nM
UACCCAUAGGGAAGGAGCGCGCUAACAUGAGGAUCACCCAUGUAAAGGGUUUCUGGCUUAGCGCAGGUAGGUCGCCCUAUGGGUA [#10 Exclusion - Arginine B]	238 nM
AGUUGACAAAAGUCAGCAACAUGAUCCGAAGGAGCGGGCGAAAGCCCAGGUAGGUCGCGGACAUGAGGAUCACCCAUGUCUCCUU [ArgAX 3 #OpenEnded #Sliding]	74.3 nM
ACAUGAGGAUCACCCAUGUGAAGGCACGAUACCAGCUGAUCCCGUGGCCCUUGGCAGCGUCACGUUUGGUCCCGCGGAUGAGACG [crcmullin]	14.2 nM
UAAAAUAUCUGGGUGUAGGUAAUAACAGAUACCAGCCAGAUAACUGGCCCUUGGCAGCUGAAAACAUGAGGAUCACCCAUGUAAA [TheoAS 22 #OpenEnded #Ms2Late]	30.7 nM
UCAUGACAUGGGAAUAAAUAAGAAGGCGAAGGAGCGUGAAGAUUCACAGGUAGGUCGCGCAAAAUACAUGAGGAUCACCCAUGUU [JR_Nu_ExcArginiA_Sub032]	30.4 nM

Same assay, conditions: Eterna round: R107; input ligand: theophylline 20 uM

Sequence	apparent KD of MS2 coat protein
CCUAUGCAGUCGGCCGCCACUGAUAACGUUAUCGUUACCUCAGAAACAUGAGGAUCACCCAUGUACAGGACCGGGACUGUAUAGG [Ex Tryptophan B 19]	14.6 nM
AGUAAUCUAAGAGAUACCAGACGGUAUAUAACAUGAGGAUCACCCAUGUUUUGGGUGUACGUCCCUUGGCAGCUCAAAAUGAUAA [#06 Same State - Theophylline B]	202 nM
CUAAGAGCGGCGGCCGCCACUGGUAACCGAGAGGAGGAGCUUCUGAACAUGAGGAUCACCCAUGUCAGGACCGGGUCGUCUUAGA [Same State - Tryptophan B]	18.5 nM
AUAACAUGAGGAUCACCCAUGUAAGGUGAUACCAGACGAAGUAAAGUCCCUUGGCAGCACAAGUAAAGUUACGAAUAUUGAUAGA [JR_SSTheophyA_Sub004]	416 nM
CCGUCACAUGAGGAUCACCCAUGUGCGGAAGGAGCGGACGAAAGUCCAGGUAGGUCGCCGUAUAGCCAAUGACCAGCAGUGUCGG [XARG-A 21]	15.4 nM
GUGGCGAUCACGGCCGCCACUGAGCAGGUCGAGCUUGACAUGAGGAUCACCCAUGUCUGACGAUACAGGACCGGGUGAUCUCCGC [Titiinanon]	94.6 nM
UAUAUAUAUCACGAACUGUGGUGUAUGUCUCGAGGACCGGUACGGCCGCCACUCGCGCGGCCUCACAUGAGGAUCACCCAUGUCC [XTryp A #5]	132 nM
AGCUCGCAUCCUCUAGCGUCAAAGACGCGUCGAGGACCGGUACGGCCGCCACUCGACGUGAGGAUCACCCACGUCUAAGCGAGCA [TrypAX 10 #SwitchBubble #AlternativeMS2 #MS2Late #CuTurnoff]	31.7 nM
AACAUGAGGAUCACCCAUGUCUGAACUGAAGGAGCGCUAAAUAAGGCAGGUAGGUCGCGGAAUUUUGUGUGCAUAUGCAUAUGGG [9.I]	32.6 nM
CGCGGACCACCUGAUACCAGCGCAGUCAUGCAUGAACCCAACAUGAGGAUCACCCAUGUACGCCCUUGGCAGCAGGGAAAAGUCG [theeternabot_exclusion_MS2_Theo_B_8]	223 nM
CUCUGAGUGAGGAAUCACUCAGAGGCGGAUACCAGCGAGGUCCAUCGCCCUUGGCAGCCGAACAUGAGGAUCACCCAUGUCGGUA [#1 Same State - Theophylline A Attempt #23 (HarryS)]	12.1 nM
GUCCAAAGGUCGGCCGCCACUGUAGAGUGUGUUCUUUCACAUGAGGAUCACCCAUGUUGUUAUUAUAGGACCGGGAUUGUAGGAC [#21 Exclusion Tryptophan B]	31.1 nM
AGUCUUAGUGGAAGGAGCGCAGUCAUAACAUGAGGAUCACCCAUGUCGAGGUGAGGGUCAUUGCAGGUAGGUCGCCAUAAUAGGA [#16 Same State - Arginine B]	355 nM
GCGUACGAUCGGGAUACCAGACAUUGCCGUUAGGGUGAACUUGAGGAUCACCCAAGUUUUGUCCCUUGGCAGCCCGAUCGUACGC [ETB NP+V+V2 #9 Diff Apt, Same Structure]	19.4 nM
UACAUGAGGAUCACCCAUGUCCCAUGUGAACGAGGACCGGUACGGCCGCCACUCGAAUAAGGCGGCACAUGAGGAUCACCCACAU [AstrosSSTry#2]	352 nM
UACCCAUAGGGAAGGAGCGCGCUAACAUGAGGAUCACCCAUGUAAAGGGUUUCUGGCUUAGCGCAGGUAGGUCGCCCUAUGGGUA [#10 Exclusion - Arginine B]	400 nM
UAAUCCGGUCCUCGAUAAUCCUCAUGUAAACGAGGACCGGUACGGCCGCCACUCGAUAACAUGAGGAUCACCCAUGUAAUAAUAA [|T'-M'-Trp-Ms2|_Design14]	88.3 nM
AGUUGACAAAAGUCAGCAACAUGAUCCGAAGGAGCGGGCGAAAGCCCAGGUAGGUCGCGGACAUGAGGAUCACCCAUGUCUCCUU [ArgAX 3 #OpenEnded #Sliding]	70.6 nM
GGUGUUACGUCGGCCGCCACUAUACUACAUGAGGAUCACCCAUGUCAUCCCUUCAAUUGGUAGCCUAGGACCGGGACAGAAUUCG [theeternabot_exclusion_MS2_Trp_B_8]	55.2 nM
CUACAUUUGUAGAAACCGGUCAACAAUAAUCGAGGACCGGUACGGCCGCCACUCGUAUAAUUUAUUACAUGAGGAUCACCCAUGU [Tryptophan A 2]	16.7 nM
ACAUGAGGAUCACCCAUGUGAAGGCACGAUACCAGCUGAUCCCGUGGCCCUUGGCAGCGUCACGUUUGGUCCCGCGGAUGAGACG [crcmullin]	21.5 nM
UGGUCACUAGGAGAUACCAGCCGACAUGAGGAUCACCCAUGUAACCGGCGUCCUCCCUUAGGCCCUUGGCAGCUCGUAGUUGCUC [Vebice]	22.5 nM
